Source: publication PMC8864705 (Chemical Science, 2022)

T1: 4.1G-CTD triple mutation I958D/V959D/I960D (human, UniProt O43491 939-1005, I958D | V959D | I960D)
T1 sequence (looked up): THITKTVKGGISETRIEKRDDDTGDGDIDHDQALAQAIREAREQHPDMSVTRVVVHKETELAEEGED

T2: C-terminal domain of protein 4.1G (4.1G-CTD, aa 939–1005) (human, UniProt O43491 939-1005)
T2 sequence (looked up): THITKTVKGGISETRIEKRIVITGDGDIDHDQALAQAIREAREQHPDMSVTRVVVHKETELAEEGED


Assays:
[1] = target: T1, 4.1G-CTD triple mutation …; assay: ITC
[2] = target: T2, C-terminal domain of protein 4.1G …; assay: ITC

Row | Kd [1] [µM] | binding result [2] | Binder
1 | 333 ± 73 |  | SGRKTRSARRRTTQIINITMTKKLDV (domain or fragment, human, UniProt Q14980 1800-1825, looked up) [NuMA 1800–1825 (26-residue motif at the C-terminal region of nuclear mitotic apparatus protein)]
2 |  | binds | SGRKTRSARRRTTQIINITMTKKLAV (domain or fragment, human, UniProt Q14980 1800-1825, looked up) [NuMA 1800–1825 mutant D1824A]
